Measurements published in paper PMC8166883 (Cellular and Molecular Immunology, 2020).
Blank lines part the entries; values can stand above or below the binder they belong to.

What was measured:
[1] = molecular target: T1, FLAG-tagged human vascular endothelial growth factor-A (FLAG-hVEGF-A) (Homo sapiens, UniProt P15692-4); experiment: SPR; Biacore T200; mAb held by anti-hIgG capture antibodies amine-coupled to a CM5 chip; purified antigen serially diluted in HBS-EP+ (100, 33.3, 11.1, 3.7, 1.23, 0.412 nM) injected 240 s at 30 µL/min, 300 s dissociation; 1:1 Langmuir binding model with mass transfer; KD calculated as kd/ka; details: both partners purified
T1 construct: human vascular endothelial growth factor-A; The cell-based assays used bought recombinant hVEGF165 (Pepro Tech), not this construct

[2] = molecular target: T2, histidine-tagged human semaphorin 3A fused with alkaline phosphatase (hSema3A-his-AP) (Homo sapiens, UniProt Q14563); experiment: ELISA; antigen immobilised on MaxiSorp 384-well plates (62.5 ng/well), blocked with 1% BSA in PBS; DT40 culture supernatants 1 h at room temperature; detected by anti-hIgG-Fc HRP; details: one partner purified
T2 construct: human semaphorin 3A; The expressing cells were a gift from Dr. Yoshio Goshima; the construct is not described further; source: HEK293 cells, stably expressed, purified (HisTrap Excel column, gel filtration)
T2 sequence (Q14563 21-771): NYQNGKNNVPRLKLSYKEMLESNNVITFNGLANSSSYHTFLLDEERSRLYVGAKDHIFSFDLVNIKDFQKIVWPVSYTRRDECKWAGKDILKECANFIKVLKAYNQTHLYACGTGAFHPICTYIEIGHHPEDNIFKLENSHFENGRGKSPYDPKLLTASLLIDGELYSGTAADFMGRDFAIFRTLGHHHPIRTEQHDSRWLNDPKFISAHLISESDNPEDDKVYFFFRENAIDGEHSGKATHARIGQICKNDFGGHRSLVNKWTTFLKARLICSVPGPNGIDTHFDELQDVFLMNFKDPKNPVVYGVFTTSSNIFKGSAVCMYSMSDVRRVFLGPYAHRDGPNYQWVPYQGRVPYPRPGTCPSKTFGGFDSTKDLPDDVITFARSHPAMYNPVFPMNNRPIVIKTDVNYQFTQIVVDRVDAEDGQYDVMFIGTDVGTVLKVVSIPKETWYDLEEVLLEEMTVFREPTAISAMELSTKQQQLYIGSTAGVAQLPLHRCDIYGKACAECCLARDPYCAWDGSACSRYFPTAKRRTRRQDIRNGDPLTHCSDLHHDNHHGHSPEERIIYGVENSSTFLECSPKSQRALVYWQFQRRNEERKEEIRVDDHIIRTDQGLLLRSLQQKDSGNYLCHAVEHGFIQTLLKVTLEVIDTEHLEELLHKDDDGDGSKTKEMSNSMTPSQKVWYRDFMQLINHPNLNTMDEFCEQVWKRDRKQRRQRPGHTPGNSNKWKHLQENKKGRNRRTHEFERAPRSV

Kd [1]: 49.1 pM
B1: anti-hVEGF-A clone A033AM-19 (affinity-matured from A033) (antibody, V domains shown)
VH: EVELVQSGAEVKKPGSSVKVSCKASGGTFSDYSISWVRQAPGQGLEWMGGIIPIFGTPNYAQKFQGRVTITADESTSTAYMELSSLRSEDTAVYYCADGGAYCGGDCYSGYYYYGMDVWGQGTTVTVSS
VL: QSALTQPASVSGSPGQSITISCTGTSSDVGGYNLVSWYQQHPGKAPKLMIYQDNNKRPSGVSNRFSGSKSGNTASLTISGLQAEDEADYYCSYTNDSNSQVFGGGTKLTVL
notes: human IgG1 heavy chain constant region (CH1, hinge, CH2, CH3); as the light chain of m7 (identical LC); human Igλ constant region (hCλ) amplified from Ramos cell cDNA; Full-length human IgG1, λ; source: DT40 cells (subclone of A033 sorted after culture without TSA), secreted human IgG, purified

binding result [2]: binds
B2: anti-hSema3A clones from the L30H45(fff) single clone-derived library (three clones with identical HC and LC sequences) (antibody, V domains shown)
VH: EVQLLESGGGLVQPGGSLRLSCAASGFTFSSYWMSNEMSWVRQAPGKGLEWVSSISGGSTYYADSVKGRFTISRDNSKNTLYLQMNSLRAEDTAVYYCAKGYSGYDYYFDYWGQGTLVTVSS
VL: QSALTQPASVSGSPGQSITISCTGTSSDVGGYNYVSWYQQNPGKAPKLMIYDVSNRPSGISNRFSGSKSGNTASLTISGLQADDEADYYCTSYTNDSNSQVFGGGTKLTVL
notes: human IgG1 heavy chain constant region (CH1, hinge, CH2, CH3); human Igλ constant region (hCλ) amplified from Ramos cell cDNA; Full-length human IgG1, λ; source: DT40 L30H45(fff) cells treated with TSA for 86 days, selected on hSema3A-his-AP beads, limiting dilution cloning
